In the supplement of paper PMC7877785:
± gives the uncertainty stated by the source.

Assay: self-splicing fitness, log relative to wild type (ln ratio); higher = more splicing; Tetrahymena group I intron in knt gene, E. coli kanamycin selection, DiMSum; sequences stand for … in CUCUCU…GGAGGGAAAAGUUAUCAGGCAUGCACCUGGUAGCUAGUCUUUAAACCAAUAGAUUGCAUCGGUUUAAAAGGCAAGACCGUCAAAUUGCGGGAAAGGGGUCAACAGCCGUUCAGUACCAAGUCUCAGGGGAAACUUUGAGAUGGCCUUGCAAAGGGUAUGGUAAUAAGCUGACGGACAUGGUCCUAACCACGCAGCCAAGUCCUAAGUCAACAGAUCUUCUGUUGAUAUGGAUGCAGUUCACAGACUAAAUGUCGGUCGGGGAAGAUGUAUUCUUCUCAUAAGAUAUAGUCGGACCUCUCCUUAAUGGGAGCUAGCGGAUGAAGUGAUGCAACACUGGAGCCGCUGGGAACUAAUUUGUAUGCGAAAGUAUAUUGAUUAGUUUUGGAGUACUCGUGGUCG
In short: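 The eight P1ex-region nucleotides of an intron in the knt kanamycin-resistance gene on pET-22b(+) were all randomised and the library put into E. coli BL21(DE3). Six replicate transformations were grown overnight at 37°C or 30°C on LB agar with or without 25 μg/mL kanamycin, together with 100 μg/mL carbenicillin, 50 μM IPTG and 0.2% rhamnose. Colonies were pooled and amplicon-sequenced on an Illumina HiSeq 2500. Fitness from DiMSum is the error-weighted combination of wild-type-normalised replicate fold changes, kanamycin over none.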

| Sequence | self-splicing fitness (ln) (30 °C) | self-splicing fitness (ln) (37 °C) |
| --- | --- | --- |
| UGCUAGCAAUAUUACGGAAA | -2.19 ± 0.27 | -2.19 ± 0.31 |
| UGCUAGCAAUAUUACGGACA | -0.668 ± 0.098 | 0.41 ± 0.12 |
| UGCUAGCAAUAUUACGGAGA |  | -2 ± 0.22 |
| UGCUAGCAAUAUUACGGAUU | -1.7 ± 0.14 | -2.02 ± 0.13 |
| UGCUAGCAAUAUUACGGCCU | 0.151 ± 0.14 | 0.383 ± 0.16 |
| UGCUAGCAAUAUUACGGCUG | -0.317 ± 0.15 | -0.46 ± 0.18 |
| UGCUAGCAAUAUUACGGGAC | -2.52 ± 0.2 | -1.92 ± 0.18 |
| UGCUAGCAAUAUUACGGUAA | -1.03 ± 0.15 | -1.47 ± 0.12 |
| UGCUAGCAAUAUUACGUCCU | -1.19 ± 0.12 | -0.143 ± 0.14 |
| UGCUAGCAAUAUUACGUCGC | -3.37 ± 0.2 | -2.65 ± 0.41 |
| UGCUAGCAAUAUUACGUGAC | -3.39 ± 0.35 | -2.56 ± 0.41 |
| UGCUAGCAAUAUUACGUGUC | -3.7 ± 0.42 | -2.72 ± 0.38 |
| UGCUAGCAAUAUUACGUUCA | -0.255 ± 0.076 | 0.0245 ± 0.12 |
| UGGAAGCAAUAUUACGAACU | 0.00939 ± 0.14 | -0.029 ± 0.13 |
| UGGAAGCAAUAUUACGACCC | -0.0757 ± 0.24 | -0.147 ± 0.25 |
| UGGAAGCAAUAUUACGACGU | -1.62 ± 0.15 | -0.761 ± 0.2 |
| UGGAAGCAAUAUUACGAUAC | -3.37 ± 0.49 | -2.54 ± 0.48 |
| UGGAAGCAAUAUUACGCCGA | -1.53 ± 0.26 | -0.201 ± 0.27 |
| UGGAAGCAAUAUUACGCCUU | -2.28 ± 0.31 |  |
| UGGAAGCAAUAUUACGCGGG | -3.32 ± 0.24 | -1.29 ± 0.22 |
| UGGAAGCAAUAUUACGCUAG | -0.433 ± 0.1 | -0.523 ± 0.17 |
| UGGAAGCAAUAUUACGCUCU |  | -1.45 ± 0.32 |
| UGGAAGCAAUAUUACGGCGA | -0.779 ± 0.12 | -0.28 ± 0.16 |
| UGGAAGCAAUAUUACGGGCG | -0.122 ± 0.1 | -0.0506 ± 0.11 |
| UGGAAGCAAUAUUACGGGGG | -2.52 ± 0.32 | -2.89 ± 0.49 |
| UGGAAGCAAUAUUACGGGUC |  | -3.04 ± 0.38 |
| UGGAAGCAAUAUUACGGUUG | -1.46 ± 0.1 | -0.621 ± 0.13 |

| Sequence | self-splicing fitness (ln) (30 °C) | self-splicing fitness (ln) (37 °C) |
| --- | --- | --- |
| UGGAAGCAAUAUUACGUCUA | -0.281 ± 0.15 | -0.741 ± 0.18 |
| UGGAAGCAAUAUUACGUGCU | -2.92 ± 0.19 | -1.7 ± 0.17 |
| UGGAAGCAAUAUUACGUGUA | -2.12 ± 0.099 | -0.482 ± 0.1 |
| UGGAAGCAAUAUUACGUGUU | -3.39 ± 0.16 | -2.7 ± 0.17 |
| UGGAAGCAAUAUUACGUUCA | -0.654 ± 0.069 | 0.00518 ± 0.092 |
| UGGCAGCAAUAUUACGACAG | -1.02 ± 0.087 | 0.224 ± 0.11 |
| UGGCAGCAAUAUUACGACUG | -1.01 ± 0.071 | -0.812 ± 0.1 |
| UGGCAGCAAUAUUACGAGAU | -1.46 ± 0.21 |  |
| UGGCAGCAAUAUUACGAGGC | -2.12 ± 0.2 |  |
| UGGCAGCAAUAUUACGAGGU | -3.29 ± 0.23 | -2.53 ± 0.3 |
| UGGCAGCAAUAUUACGAGUA | -1.75 ± 0.15 | -1.46 ± 0.13 |
| UGGCAGCAAUAUUACGAUUC |  | -1.46 ± 0.32 |
| UGGCAGCAAUAUUACGAUUG | -1.07 ± 0.074 | 0.135 ± 0.093 |
| UGGCAGCAAUAUUACGCACU | -0.473 ± 0.068 | 0.399 ± 0.094 |
| UGGCAGCAAUAUUACGCGCA | -0.259 ± 0.14 | 0.284 ± 0.15 |
| UGGCAGCAAUAUUACGCUGG | -3.47 ± 0.33 | -2.53 ± 0.29 |
| UGGCAGCAAUAUUACGGCCA |  | -0.836 ± 0.45 |
| UGGCAGCAAUAUUACGGCUU | -0.209 ± 0.075 | 0.316 ± 0.098 |
| UGGCAGCAAUAUUACGGGAG | -3.13 ± 0.21 | -1.15 ± 0.14 |
| UGGCAGCAAUAUUACGGUGC | -3.3 ± 0.23 | -2.79 ± 0.32 |
| UGGCAGCAAUAUUACGUAAC | -3.2 ± 0.22 | -2.16 ± 0.26 |
| UGGCAGCAAUAUUACGUCAU | -4.47 ± 0.33 | -2.67 ± 0.26 |
| UGGCAGCAAUAUUACGUCCC | 0.385 ± 0.14 | -0.074 ± 0.19 |
| UGGCAGCAAUAUUACGUCGG | -0.425 ± 0.097 | -0.268 ± 0.13 |
| UGGCAGCAAUAUUACGUUCG | -0.337 ± 0.068 | 0.283 ± 0.096 |
| UGGGAGCAAUAUUACGCGAA | -1.59 ± 0.23 | -1.67 ± 0.34 |
| UGGGAGCAAUAUUACGCGGU | -3.43 ± 0.24 | -3.8 ± 0.33 |

| Sequence | self-splicing fitness (ln) (30 °C) | self-splicing fitness (ln) (37 °C) |
| --- | --- | --- |
| UGGGAGCAAUAUUACGGCUA | -0.66 ± 0.21 | -0.59 ± 0.15 |
| UGGGAGCAAUAUUACGGCUG | -1.09 ± 0.19 | -2.31 ± 0.26 |
| UGGGAGCAAUAUUACGGGGA | -2.94 ± 0.32 | -2.9 ± 0.29 |
| UGGGAGCAAUAUUACGGUCG | -1.47 ± 0.12 | -0.961 ± 0.2 |
| UGGGAGCAAUAUUACGGUGG | -2.67 ± 0.46 |  |
| UGGGAGCAAUAUUACGUAUU | -2.76 ± 0.33 | -1.91 ± 0.28 |
| UGGGAGCAAUAUUACGUCGA | -1.85 ± 0.39 | -1.21 ± 0.28 |
| UGGUAGCAAUAUUACGAAGG | -2.95 ± 0.28 | -1.39 ± 0.24 |
| UGGUAGCAAUAUUACGAGAC | -1.69 ± 0.24 | -2.71 ± 0.43 |
| UGGUAGCAAUAUUACGCACA | -0.0584 ± 0.068 | 0.436 ± 0.074 |
| UGGUAGCAAUAUUACGCCAG | -1.16 ± 0.28 | -0.742 ± 0.3 |
| UGGUAGCAAUAUUACGCCCG | 0.0173 ± 0.14 | -0.718 ± 0.17 |
| UGGUAGCAAUAUUACGCCUC | -1.82 ± 0.39 | -2.03 ± 0.39 |
| UGGUAGCAAUAUUACGCGCG | 0.0906 ± 0.2 | -0.0153 ± 0.25 |
| UGGUAGCAAUAUUACGCGUC | -3.94 ± 0.43 | -2.52 ± 0.35 |
| UGGUAGCAAUAUUACGCGUU | -2.76 ± 0.13 | -1.32 ± 0.12 |
| UGGUAGCAAUAUUACGCUCA | -0.626 ± 0.14 | 0.26 ± 0.18 |
| UGGUAGCAAUAUUACGCUGA | -1.07 ± 0.15 | -0.679 ± 0.11 |
| UGGUAGCAAUAUUACGGAAG | -2.16 ± 0.15 | -1.27 ± 0.18 |
| UGGUAGCAAUAUUACGGGCU | -2.27 ± 0.14 | -0.926 ± 0.11 |
| UGGUAGCAAUAUUACGGGGC |  | -2.37 ± 0.38 |
| UGGUAGCAAUAUUACGUCCU | 0.31 ± 0.2 | 0.713 ± 0.3 |
| UGGUAGCAAUAUUACGUGUC | -2.13 ± 0.46 |  |
| UGUAAGCAAUAUUACGAAAC | -4.22 ± 0.3 | -2.95 ± 0.25 |
| UGUAAGCAAUAUUACGAAGG | -2.14 ± 0.15 | -1.92 ± 0.25 |
